Test results: article PMC12368520
Numbering of substitutions follows the chain as printed. Names may count otherwise.

B1: Sb44, synthetic nanobody (sybody) against TGP (VHH)
VHH: QVQLVESGGGLVQAGGSLRLSCAASGFPVGRASMWWYRQAPGKEREWVAAISSYGWVTAYADSVKGRFTISRDNAKNTVYLQMNSLKPEDTAVYYCEVSVGTGYRGQGTQVTVSA
B2: Sb44 V100C (VHH)
VHH: B1 VHH with V100C

Experiments:
[1] = target: Sb44, synthetic nanobody (sybody) against TGP; test: SEC; TGP (or Cys mutant) and sybody (or mutant) mixed 1:3 on ice for 20 min; Superdex 200 Increase 10/300 GL; 150 mM NaCl, 20 mM HEPES pH 7.5; absorbance at 493 nm and 280 nm
[2] = target: Sb44 V100C; test: as above
[3] = target: Sb44 V100C; test: SDS-PAGE (non-reducing); individually purified proteins; Laemmli sample buffer without DTT; 12% gel; Coomassie and in-gel fluorescence; shows disulfide-linked species

| Binder | stoichiometry N [1] | stoichiometry N [2] | stoichiometry N [3] |
| --- | --- | --- | --- |
| B1 | 2 | – | – |
| B2 | – | 2 | 2 |
